# Experimental data from patent US20250115669A1, “FGFR1/KLB Targeting Agonistic Antigen-Binding Proteins and Conjugates Thereof with GLP-1R Agonistic Peptides” (SANOFI, priority 2020, published 2025).
# Substitutions are numbered along the chain they refer to. Names and notes keep the numbering of the source.
# T1: human beta-Klotho (Homo sapiens, UniProt Q86Z14)
# T1 sequence (Q86Z14 1-1044): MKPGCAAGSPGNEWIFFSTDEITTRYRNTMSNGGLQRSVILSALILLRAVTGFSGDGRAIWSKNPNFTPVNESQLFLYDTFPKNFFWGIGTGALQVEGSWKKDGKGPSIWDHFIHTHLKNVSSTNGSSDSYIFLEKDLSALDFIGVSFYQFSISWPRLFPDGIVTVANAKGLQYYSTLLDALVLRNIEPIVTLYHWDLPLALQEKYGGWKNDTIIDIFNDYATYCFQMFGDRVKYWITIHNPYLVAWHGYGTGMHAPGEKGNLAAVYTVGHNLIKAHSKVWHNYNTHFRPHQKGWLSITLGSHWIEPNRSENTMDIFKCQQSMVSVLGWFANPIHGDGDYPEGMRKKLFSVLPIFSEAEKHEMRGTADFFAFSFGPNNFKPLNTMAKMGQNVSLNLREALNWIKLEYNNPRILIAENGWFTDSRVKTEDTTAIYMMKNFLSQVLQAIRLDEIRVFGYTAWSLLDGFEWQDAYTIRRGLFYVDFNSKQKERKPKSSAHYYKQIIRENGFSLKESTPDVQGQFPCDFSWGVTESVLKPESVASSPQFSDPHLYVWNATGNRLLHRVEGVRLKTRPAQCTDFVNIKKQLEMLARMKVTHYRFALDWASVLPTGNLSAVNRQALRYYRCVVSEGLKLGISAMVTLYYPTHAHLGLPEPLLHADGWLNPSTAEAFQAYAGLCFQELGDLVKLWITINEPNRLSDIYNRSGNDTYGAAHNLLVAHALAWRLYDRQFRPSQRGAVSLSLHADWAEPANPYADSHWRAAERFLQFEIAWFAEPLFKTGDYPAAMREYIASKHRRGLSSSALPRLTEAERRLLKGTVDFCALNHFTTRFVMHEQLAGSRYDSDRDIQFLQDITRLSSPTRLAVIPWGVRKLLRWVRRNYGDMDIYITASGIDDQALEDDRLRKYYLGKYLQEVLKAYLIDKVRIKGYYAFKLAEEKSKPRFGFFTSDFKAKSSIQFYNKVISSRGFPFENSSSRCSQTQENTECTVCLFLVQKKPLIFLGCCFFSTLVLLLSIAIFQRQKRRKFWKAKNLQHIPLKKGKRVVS
# B1: Ab0330: IgG4 PE; 16H7 VL (N25S, D49S, D50E, D91A, N93E); 16H7 VH (M34V, I83T, D109E) (antibody)
# VH: QVTLKESGPVLVKPTETLTLTCTVSGFSLNNARVGVSWIRQPPGKALEWLAHIFSNDEKSYSTSLKSRLTISKDTSKSQVVLTMTNMDPVDTATYYCARSVVTGGYYYEGMDVWGQGTTVTVSS
# light: SYVLTQPPSVSVAPGQTARITCGGSNIGSESVHWYQQKPGQAPVLVVYSESDRPSGIPERFSGSNSGNTATLTISRVEAGDEADYYCQVWAGESDHVVFGGGTKLTVLGQPKANPTVTLFPPSSEELQANKATLVCLISDFYPGAVTVAWKADGSPVKAGVETTKPSKQSNNKYAASSYLSLTPEQWKSHRSYSCQVTHEGSTVEKTVAPTECS
# B2: Ab0337: IgG4 PE; 16H7 VL (N25S, D49S, D50H, D91E, N93E); 16H7 VH (M34V, I83T, D109E) (antibody)
# VH: B1 VH
# light: B1 light with E50H, A91E
# B3: Ab0354: IgG4 PE; 16H7 VL (N25S, D49E, D50E, D91H, N93S); 16H7 VH (M34V, I83T, D109E) (antibody)
# VH: B1 VH
# light: B1 light with S49E, A91H, E93S
# B4: Ab0346: IgG4 PE; 16H7 VL (N25S, D49A, D50H, D91A, N93S); 16H7 VH (M34V, I83T, D109E) (antibody)
# VH: B1 VH
# light: B1 light with S49A, E50H, E93S
# B5: Ab0353: IgG4 PE; 16H7 VL (N25S, D49E, D50E, D91E, N93A); 16H7 VH (M34V, I83T, D109E) (antibody)
# VH: B1 VH
# light: B1 light with S49E, A91E, E93A
# B6: Ab0341: IgG4 PE; 16H7 VL (N25S, D49A, D50Y, D91A, N93S); 16H7 VH (M34V, I83T, D109E) (antibody)
# VH: B1 VH
# light: B1 light with S49A, E50Y, E93S
# B7: Ab0332: IgG4 PE; 16H7 VL (N25S, D49S, D50E, D91E, N93A); 16H7 VH (M34V, I83T, D109E) (antibody)
# VH: B1 VH
# light: B1 light with A91E, E93A
# B8: Ab0350: IgG4 PE; 16H7 VL (N25S, D49E, D50E, D91A, N93S); 16H7 VH (M34V, I83T, D109E) (antibody)
# VH: B1 VH
# light: B1 light with S49E, E93S
# B9: Ab0348: IgG4 PE; 16H7 VL (N25S, D49E, D50E, D91T, N93E); 16H7 VH (M34V, I83T, D109E) (antibody)
# VH: B1 VH
# light: B1 light with S49E, A91T
# B10: Ab0352: IgG4 PE; 16H7 VL (N25S, D49E, D50E, D91E, N93S); 16H7 VH (M34V, I83T, D109E) (antibody)
# VH: B1 VH
# light: B1 light with S49E, A91E, E93S
# B11: Ab0345: IgG4 PE; 16H7 VL (N25S, D49A, D50A, D91E, N93A); 16H7 VH (M34V, I83T, D109E) (antibody)
# VH: B1 VH
# light: B1 light with S49A, E50A, A91E, E93A
# B12: Ab0333: IgG4 PE; 16H7 VL (N25S, D49S, D50Y, D91A, N93S); 16H7 VH (M34V, I83T, D109E) (antibody)
# VH: B1 VH
# light: B1 light with E50Y, E93S
# B13: Ab0344: IgG4 PE; 16H7 VL (N25S, D49A, D50A, D91E, N93S); 16H7 VH (M34V, I83T, D109E) (antibody)
# VH: B1 VH
# light: B1 light with S49A, E50A, A91E, E93S
# B14: Ab0340: IgG4 PE; 16H7 VL (N25S, D49A, D50E, D91E, N93S); 16H7 VH (M34V, I83T, D109E) (antibody)
# VH: B1 VH
# light: B1 light with S49A, A91E, E93S
# B15: Ab0336: IgG4 PE; 16H7 VL (N25S, D49S, D50H, D91A, N93S); 16H7 VH (M34V, I83T, D109E) (antibody)
# VH: B1 VH
# light: B1 light with E50H, E93S
# B16: Ab0347: IgG4 PE; 16H7 VL (N25S, D49A, D50S, D91A, N93S); 16H7 VH (M34V, I83T, D109E) (antibody)
# VH: B1 VH
# light: B1 light with S49A, E50S, E93S
# B17: Ab0339: IgG4 PE; 16H7 VL (N25S, D49A, D50E, D91A, N93S); 16H7 VH (M34V, I83T, D109E) (antibody)
# VH: B1 VH
# light: B1 light with S49A, E93S
# B18: Ab0334: IgG4 PE; 16H7 VL (N25S, D49S, D50A, D91A, N93S); 16H7 VH (M34V, I83T, D109E) (antibody)
# VH: B1 VH
# light: B1 light with E50A, E93S
# B19: Ab0343: IgG4 PE; 16H7 VL (N25S, D49A, D50A, D91A, N93S); 16H7 VH (M34V, I83T, D109E) (antibody)
# VH: B1 VH
# light: B1 light with S49A, E50A, E93S
# B20: Ab0349: IgG4 PE; 16H7 VL (N25S, D49E, D50E, D91T, N93S); 16H7 VH (M34V, I83T, D109E) (antibody)
# VH: B1 VH
# light: B1 light with S49E, A91T, E93S
# B21: Ab0338: IgG4 PE; 16H7 VL (N25S, D49S, D50S, D91A, N93S); 16H7 VH (M34V, I83T, D109E) (antibody)
# VH: B1 VH
# light: B1 light with E50S, E93S
# B22: Ab0342: IgG4 PE; 16H7 VL (N25S, D49A, D50A, D91A, N93E); 16H7 VH (M34V, I83T, D109E) (antibody)
# VH: B1 VH
# light: B1 light with S49A, E50A
# Target: T1, human beta-Klotho
# Assay: SPR off-rate screening of antibody mutants (human beta-Klotho captured by anti-His antibody)
# Format: binding
# Conditions: mean, n=3
# Procedure, shortened: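 Using beta-Klotho bound through its His tag to an anti-His capture surface, we measure dissociation of 50 nmol/L antibody analytes over 300 sec following 240 sec of association; surfaces are regenerated between cycles and kd is fitted single-exponentially.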
row,Molecule,koff human KLB
1,B1,invalid fit
2,B2,0.0005296 s⁻¹
3,B3,0.00158 s⁻¹
4,B4,invalid fit
5,B5,0.0003799 s⁻¹
6,B6,invalid fit
7,B7,0.00143 s⁻¹
8,B8,invalid fit
9,B9,invalid fit
10,B10,0.0004194 s⁻¹
11,B11,0.00188 s⁻¹
12,B12,0.0002507 s⁻¹
13,B13,0.00168 s⁻¹
14,B14,0.00176 s⁻¹
15,B15,invalid fit
16,B16,invalid fit
17,B17,invalid fit
18,B18,invalid fit
19,B19,invalid fit
20,B20,invalid fit
21,B21,0.0004292 s⁻¹
22,B22,invalid fit
